Results reported in publication PMC6224492 (2018).
The star is where a group is joined. FITC = O=C1OC2(c3ccc(O)cc3Oc3cc(O)ccc32)c2ccc(NC(=S)*)cc21; Ahx = NCCCCCC(=O)O

T1: full-length PPARγ with GW1929 (Homo sapiens)
T1 chain: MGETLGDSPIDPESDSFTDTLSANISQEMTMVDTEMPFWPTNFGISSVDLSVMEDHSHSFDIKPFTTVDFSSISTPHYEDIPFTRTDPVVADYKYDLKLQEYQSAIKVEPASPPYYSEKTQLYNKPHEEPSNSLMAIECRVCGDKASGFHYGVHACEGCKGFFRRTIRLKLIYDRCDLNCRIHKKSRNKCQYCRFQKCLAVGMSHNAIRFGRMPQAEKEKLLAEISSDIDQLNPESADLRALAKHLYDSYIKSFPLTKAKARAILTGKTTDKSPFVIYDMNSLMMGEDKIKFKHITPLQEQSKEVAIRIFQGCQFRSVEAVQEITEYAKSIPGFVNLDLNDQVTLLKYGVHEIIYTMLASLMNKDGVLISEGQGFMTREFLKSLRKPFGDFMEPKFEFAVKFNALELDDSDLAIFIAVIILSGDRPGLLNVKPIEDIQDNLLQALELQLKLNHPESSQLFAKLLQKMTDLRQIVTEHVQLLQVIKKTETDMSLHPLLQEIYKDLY


Experiments:
[1] = molecular target: full-length PPARγ (isoform 2), delipidated, no ligand (human) (UniProt P37231); assay: FP
[2] = molecular target: T1, full-length PPARγ with GW1929; assay: FP; GW1929

Kd [1] [µM] | Kd [2] [µM] | Molecule
7.4 | – | FITC-labeled NCoR1 corepressor peptide (residues 2256-2278)
– | 9 | {FITC-Ahx}-DPASNLGLEDIIRKALMGSFDDK-NH2 [FITC-labeled NCoR1 corepressor peptide (residues 2256-2278)]
